Experimental data published in a protein production outcome set (Wang et al. 2014).

Test: label from the status in PepcDB records

Row | Sequence | protein production
1 | MRRRGKGGGSVFYHEGKGKWVAQLTWIDPATGRKVKREKHCETRKEAERALADMVVAQAKGLLTDPSRLTTRDFALDYLKRLEREGLRPNSIRLAQEELAHALPSLKDPKAHDPLGRMRLQEVKPVHVRAAVDRVAEAGYAPRTVGRVLMRLKALFREALRLELVARNPAEAVRLRLPKGEKTARALEPQEVARLLETAEASRSKDMALLLRLMLETGLRRGEALALQWRDIDLEAGELTVWRSWTKARGKGAFSEPKTPTAKRKVPLPRGLLLRLKARREELLERLTPEEVDGLFLVGGVKPVDPDAFNHYLRRLAERAGLGRVRVHDLRHTWATLALSRGVPLEVVSERLGHASPTITLNVYRHLLEEERRGWVLDLEELLYPAPRAQA | failed
2 | MRRSLRHGFTALLTTWALLLPTVAVAQEPIDNVPEVTADNAETLEDIIDDALTPTTRLEAPNTDLCPYKESPSPARSTSEVVAPGAQTPALVPVPSVPAGGEKLATCGVITPNGFELPEDSDETITASAWMVFDIDSGEIIAAKDPHGRYRPASIIKVLLSLVAIDELNPTTVVTGTMEAANIEGSRVGVGEGGQYTVDQLLHGLLLASGNDAAYLLAQELGGDQATLEKVNALAKELGTQDTFVATYSGLDAPGMSTSAYDMSLIYQHAWQNPVFESIISTDHIDFPGWGDNEGFQVWNDNALFMNDPDGIGGKTGYTDDANHTFVGGLDRGGRRLAAVLLDSTVSDIRPWEQARLLIDASLPITPGSGVGQLGSGSANDVAPATPELPEPTDNLTSGEGGSQNTLLKLVVPIGIIVLLLIAALAWTFRSPKKKN | failed
3 | MRRVFGAKKNTEPPPSIQDASDRINKRGDSVEDKIKKLDVELCKYKEQLKKTRPGPAQEAVKARAMRVLKQKKMYEGQRDMLYNQTFNLDQVSFAAEGLKDAQQTMTALKSANKELKGMMKTVKIQDIDNLQDEMMDLMDVSSEIQESLGRSYNIPDGLDEDDLMGELDALEADMGNETEADGMPSYLQPDTETDYDSELNLPAAPTGHNGAPHGRAQVNF | failed
4 | MRRVISIFRKLSAVYCHTGNFAEGIRVCKYALGRFTEMEDKYKCIFTFNMSLYYNYLGEYGKALNAITGFESVIKATYEDRYYKVLLLKADCYYGAERYAESLSIYNKLISITLKDDFNNLCVYYNNMTQVYLRMGKRDMAVNCINTVINNLHNISDDFEALPQIYAELGKSYLMMADNDKSIKYLTIALKLSKDFKYYSVTKDILNELSKIKGNSNKLKLKDEFIILTENMGRSYDSLNHSLVFNIIQYYTRLGDVASINELCEYCKERKVG | failed
5 | MRRVLMVNFGVLLLFCFGVLSNSFGQDNGGDSDINSTTAVYIVTLRQASSLHLFQQEAEEVKRVRDQSKHGDTSKFTRPKLQPRNISRSRYWRSRRSAIAQAHDSLLRNALKGEKYIKLYSFHYLINGFAVFVSSQQAETLSRRREVANIVLDFSVRTATTYTPQFMGLPKGAWVKEGGYETAGEGIVIGFIDTGIDPTHPSFNGTDTSQRQYPIPNHFSGVCEVTPDFPSGSCNRKLVGARHFAQSAITRGIFNSSEDYASPFDGDGHGTHTASIAAGNHGVSAVVSGHNFGSASGIAPRAHISVYKALYKSFGGFAADVVAAIDQAAQDGVDILSLSITPNRRPPGVATFFNPLDMAMLSAVKAGIFVVQAAGNTGPSPKSMSSFSPWIFTVGAASHDRDYSNSIVLGNNVSIPGVGLALRTDEGKKYTMISALDALKNKSSVVDKDMYVGECQDYGSFDKDVIRGNLLICSYSIRFVLGLSTIKQALAVAKNLSAKGVVFYMDPYVLGFQINPTPMDMPGIIIPSAEDSKVLLKYYNSSLVRDGTTKEIVRFGAVAAIAGGQNANFSNRAPKIMYYSARGPDPQDSLFNDADILKPNLVAPGNSIWGAWSSAATESTEFEGESFAMMSGTSMAAPHVAGVAALVKQKFRKFSPSAIASALSTTSVLFDNKGEAIMAQRAYANPDQTISPATPFDMGNGFVNATAALDPGLIFDTSFEDYMSFLCGINGSAPVVFNYTGTNCLRNNATISGSDLNLPSITVSKLNNTRTVQRLMTNIAGNETYTVSLITPFDVLINVSPTQFSIASGETKLLSVILTAKRNSSISSFGGIKLLGNAGHIVRIPVSVTVKIASKQ | failed
6 | MRSLCAGGRAIGLSGPDSRRHHRPQGPSEGASLILPDLSSSIAVGALIYWMLLLTIKHVFADFIFQNKWMAMGKDAKTGWALPLLAHCSVHLVMTTLLMLILAPRYWYIGVIDFLIHLAIDRLKGFLVATYDVTNQDRWFWWLIGTDQALHHLTGFGLAIVLAANP | failed
7 | MRSQALRADVLMLITAVIWGSAFVAQTSGMNHIGPFLYSGLRFALGSLCLLPLVLRKTPTDRQPEPLLNRGLLLGGVLMGLALALGINLQQVGLMFTTVTNAGFITGLYVIVVPLLGLLIGHKTGLGTWLGAVLAVVGMFLLSVSDSFHVASGDWLQLIGAFVWGGHVILVGVFAGRHDPIRLAFLQFATCAVVSLILALCLEPLRWEAIVGAGPAILYGGVVAVGIGYTLQVIAQKDAIASHAAIILSLEAVFAAIAGAWLLDESLQARGYFGCALMLSGMLVAQLWPQKPHSSTTTQRA | failed
8 | MRSTKTNAMEAIMKKFMGIATAAVFGLGIFTTSAKAETIVTTDVLNVRENPTTESKVVGKLLDGYKVNVLHTENGWSKVQLNSGKEAFISADYTKDTYYVTANVLNVRAGANTDSEILGKLKKDDVIETTHQVQNDWIQFEYNGKTAYVHVPYLTGKAPVKVQPVAKVEKTTTVQDTAKVREAAKAQEVAETQAKAKAVEATKAREAAEAQAEVKAQEAAKAREAAKAQEAAKAQADAEAQAEVKAQEAAKAREAAKAQADAEAQAAAKAQEAAKAREAAKAQEAAEAREAAKAQEAREAAKAQEAAKAQKSATQQPVAKETETSTPSSSRELRVVATAYTADPLENGYKAGDQVKSALGHNLTANPNMKLIAVDPSVIPLGSKVWVEGYGVAIAGDTGGAIKGNKIDVLMPDKGSSSSWGRKTVTVKVLNLEHHHHHH | not failed
9 | MRSYRAQGPLPGFYHYYPGVPAVVGVRVEERVNFCPAVWNTGLSADPPLFGVSISPKRFTHGLLLKARRFSASFHPFGQKDLVHWLGSHSGREVDKGQAPHFLGHTGVPILEGAYAAYELELLEVHTFGDHDLFVGRVVAVWEEEGLLDEKGRPKPGLALLYYGKGLYGRPAEETFAP | not failed
10 | MRTERWWQDTSVTDHLFRQFGRFEFIQATRLLRHVPYHMDQTQWASEFQFGSSLALSFPKTEIEHLAQSDERIEMTSLVVGLTGTQGALPYTYTNKLKQSSRQQRREIQAFLGLFNHTLTVQYVDASLVHHLPVRYEVEQENHYLNILHALNGYISSHHQHNELDEYFAEFAGLMQGQNNTAHALTTMLTCIFKQKVMVKEFIREKFYLSDEQKTCLGGAQPSLLGINTFCGDTIEQIDGKIEIQIGPLKRKQYLDFLPSGRASTQLKHILATWCSPTLLVDLRLILDQDDVQPFCLDSVHQMGLGQGVFLTSQASNQDNQDTCYSLIGAVA | failed
11 | MRTKNILAALALFLGISLPSLVEAANAYATGNVNVRTGPGTRYPRTGTIPAGATLTIRGCLNGYSWCEVIFAGQSGWASSNYLQATYQNRRRPVIHIGPVIGLPVIVHKPRPPHWEHRPRPPRPPHWGHRPRPPHWDHRPRPPRPQPRLEHHHHHH | not failed
12 | MRTLVAPTHAPKRRMLLALLATPALALAQPAWTQQPPPVKLDVPYVPTPDDAVARMLEMADVTAQDTVIDLGSGDGRIAIAAVRDRGARSAMGVDIDPERIAEARANARKAGLADRVTFVQQDLFDTDISKATVLTMYLLPDVNLKLRPRILNSLAPGTRVVSHAFTMGEWDSDRYELVDGRSLYLWVVPAHAAGDWQVEDPAGPFTLSVRQDFQKVTASAQRQGERLGVAEAALRGTDLRFTVDAGSGPRTYVGRIQGDRMTAVQAPGNESGWRATRRAP | failed
13 | MRTPAWLGSGMPLLFVLLWSTGFLGAKFGLPYAEPFTFLAIRLLLAAALLAAFALLSGAPWPGSARLAGHVAVAGLLVHGLYLGGVFLAIEHGMSAGLTSLLVGLQPLATAALAGIWLGEQVSRRQWLGLALGLAGVALVVLGRIHGGADGLAWAAVLVALAAITCGTLYQKRFCGGMDLRTGGVVQYLASGALLGLAALLFESREVQWSTPFVLTLGWLVLGLSFGAVGLLYTLIRHGAASKVASLFYLVPPVTALASWLLFDERLAPAAIGGMLLVMLGVALVNWPGRRA | failed
14 | MRTPRRAPEPVQVVKQRRDATLRALVDGVPYIQFLGIEFERRGDELTGILPFDQKLIGNPLLPAIHGGVTAAFLEVTAIITLSWTYLWEDMESGAIDAKGLASGGMPRLPKTIDISTDYLRSGLPRDAYARARIVRSGRRYASVHVEAWQDNRDRLFAQATGHFLMPDRRDS | failed
